Results on one molecule are retold here after article PMC3962490, “The Yeast Ess1 Prolyl Isomerase Controls Swi6 and Whi5 Nuclear Localization” (G3: Genes|Genomes|Genetics, 2014).

This assay has as its target all the peptides, including the phosphorylated CTD peptide. In words: BLI; Octet RED, 24°; N-terminally biotinylated peptides immobilised on streptavidin biosensors; Ess1 in solution (3, 10, 30 μM); 20 mM Tris-HCl pH 8.0, 1 mg/mL BSA; no-peptide sensor subtracted; apparent dissociation constants (Kapp) from kinetic and equilibrium data, considering only the predominant faster-dissociating signal; for unphosphorylated peptides Kapp estimated from the signal at 30 μM Ess1.

B1: Recombinant S. cerevisiae Ess1 protein (enzyme)
chain: MPSDVASRTGLPTPWTVRYSKSKKREYFFNPETKHSQWEEPEGTNKDQLHKHLRDHPVRVRCLHILIKHKDSRRPASHRSENITISKQDATDELKTLITRLDDDSKTNSFEALAKERSDCSSYKRGGDLGWFGRGEMQPSFEDAAFQLKVGEVSDIVESGSGVHVIKRVG
For B1, the on-rate (kon) (in general, the second-order rate constant of association) is 17500 to 27100 M⁻¹ s⁻¹.
